Measurements reported in patent US12123876B2, “Antibody binding to HEG1 and use of the antibody for detection and treatment of mesothelioma” (Kanagawa Prefectural Hospital Organization, priority 2016, dated 2024).

Key:
SKM9-2 antibody = assay: Western blot reactivity of human HEG1 fragments expressed in ACC-MESO-1 with SKM9-2 antibody; type: binding, mouse; conditions: Western blot of cell lysate
Procedure: In this Example, the mesothelioma cell line ACC-MESO-1 was allowed to express a human HEG1 fragment with the endogenous HEG1 of ACC-MESO-1 knocked down, and the reactivity with the SKM9-2 antibody was examined. Subsequently, the reactivity with the antibody was tested for the epitope region through alanine scanning, and key amino acids for binding to the antibody were determined.
Gene transfer was performed with HEG1 siRNA (H9106) (SEQ ID NOs: 40, 41) and human HEG1 for the mesothelioma cell line ACC-MESO-1, and the reactivity of the SKM9-2 was examined through Western blot analysis. A full length protein (HEG1 full length) or a fragment (HEG1 3 kb, HEG1 2 kb, or HEG1 1 kb) of the human HEG1 was used. The full length human HEG1 protein, a protein having the amino acid sequence set forth in SEQ ID NO: 35, was obtained through inserting a base sequence set forth in SEQ ID NO: 34 into pFLAG-CMV1 (Sigma-Aldrich Japan K.K.) to obtain a plasmid, transforming the plasmid, and allowing the mesothelioma cell line to express the plasmid. Fragment HEG1 3 kb was obtained through inserting a fragment corresponding to a sequence from position 285, leucine, to position 1387, phenylalanine, of SEQ ID NO: 35 into pFLAG-CMV1 (Sigma-Aldrich Japan K.K.) in an in-frame manner, and allowing the mesothelioma cell line to express the resultant. HEG1 2 kb and HEG1 1 kb were obtained through allowing the mesothelioma cell line to express products similarly obtained from a fragment corresponding to a sequence from position 677, leucine, to position 1387, phenylalanine, of SEQ ID NO: 35 and a fragment corresponding to a sequence from position 992, valine, to position 1387, phenylalanine, of SEQ ID NO: 35, respectively. Each cell lysate was analyzed through Western blot with the SKM9-2 antibody.
Further, the region in exon 7 of HEG1 was analyzed in detail. The amino acid sequence of a part of exon 7 of HEG1 was connected to the N-terminal side of a protein obtained by connecting a GPI anchor signal to human SLURP1 (SEQ ID NO: 42; hereinafter referred to as “SLURPgpi”) to produce a fusion protein, and the reactivity of the SKM9-2 was examined through Western blot analysis with the fusion protein. A signal sequence (SEQ ID NO: 43) was added to the N-terminal of the fusion protein before expression.
Used fusion proteins of a partial sequence of exon 7 of HEG1 and SLURPgpi were as follows: • a fragment obtained by bonding a fragment from amino acid No. 783, aspartic acid, to amino acid No. 991, serine, to SLURPgpi (7.6); • a fragment obtained by bonding a fragment from amino acid No. 832, glutamine, to amino acid No. 991, serine, to SLURPgpi (7.7); • a fragment obtained by bonding a fragment from amino acid No. 886, glutamine, to amino acid No. 991, serine, to SLURPgpi (7.8); • a fragment obtained by bonding a fragment from amino acid No. 941, alanine, to amino acid No. 991, serine, to SLURPgpi (7.9); • a fragment obtained by bonding SEQ ID NO: 44 to SLURPgpi (7.61); • a fragment obtained by bonding SEQ ID NO: 45 to SLURPgpi (7.62); • a fragment obtained by bonding SEQ ID NO: 46 to SLURPgpi (7.63); • a fragment obtained by bonding SEQ ID NO: 47 to SLURPgpi (7.64); • a fragment obtained by bonding SEQ ID NO: 48 to SLURPgpi (7.623); • a fragment obtained by bonding SEQ ID NO: 49 to SLURPgpi (7.6231); • a fragment obtained by bonding SEQ ID NO: 50 to SLURPgpi (7.6232); • a fragment obtained by bonding SEQ ID NO: 51 to SLURPgpi (7.6241); and • a fragment obtained by bonding SEQ ID NO: 52 to SLURPgpi (7.6242).

[1] = test system: HEG1 protein (purified from ACC-MESO4 or recombinant soluble HEG1); assay: Western blot / dot blot reactivity of antibodies with HEG1 protein; type: binding, human; conditions: Western blot, anti-human intelectin antibody-HRP as secondary antibody
Procedure: A massive amount of ACC-MESO4 was cultured, and purification of an antigen from the cell lysate was performed. Cells from 240 10-cm dishes were solubilized with 50 mM Tris buffer (pH 8.0) containing 1% TRITON™ X-100 (detergent), 1% CHAPS, 1 mM EDTA, 50 mM NaCl, and protease inhibitor (Complete, Roche Life Science), and then centrifuged. The resulting supernatant was dialyzed with 20 mM acetate buffer (pH 5.0) at 4° C. for 18 hours to afford an acidic precipitate. The precipitate was extracted with 20 mM Tris buffer (pH 7.2) containing 0.1% TWEEN® 20 (polyethylene glycol sorbitan monolaurate, polyoxyethylenesorbitan monolaurate) and 150 mM NaCl and centrifuged, and the resulting supernatant was concentrated by using an Amicon Ultra-15, 100 kDa (Merck Millipore) and subjected to solution exchange with 20 mM Tris buffer (pH 8.0) containing 6 M guanidine hydrochloride. To the concentrated solution, tris(2-carboxyethyl)phosphine hydrochloride with a final concentration of 10 mM was added, and the resultant was heated at 60° C. for 30 minutes, and iodoacetamide with a final concentration of 40 mM was then added thereto, and reacted at room temperature for 3 hours. The reaction solution was subjected to gel filtration chromatography (SUPEROSE® 6 INCREASE (prepacked column) 10/300 GL (GE Healthcare)) in 20 mM Tris buffer (pH 8.0) containing 6 M guanidine hydrochloride and 0.05% TWEEN® 20 (polyethylene glycol sorbitan monolaurate, polyoxyethylenesorbitan monolaurate), and fractions positive for dot blot were collected. The sample was dialyzed with 25 mM phosphate buffer (pH 7.0) containing 4 M urea and 0.05% TWEEN® 20 (polyethylene glycol sorbitan monolaurate, polyoxyethylenesorbitan monolaurate) at room temperature overnight, and applied to a Mono Q 5/50 GL (GE Healthcare). The column was washed with 25 mM phosphate buffer (pH 7.0) containing 4 M urea and 0.05% TWEEN® 20 (polyethylene glycol sorbitan monolaurate, polyoxyethylenesorbitan monolaurate), and thereafter elution was performed with an NaCl salt concentration gradient of 0 to 1 M. Fractions strongly positive for dot blot were collected, and dialyzed with 25 mM phosphate buffer (pH 7.2) containing 150 mM NaCl and 0.05% TWEEN® 20 (polyethylene glycol sorbitan monolaurate, polyoxyethylenesorbitan monolaurate) at room temperature overnight, and applied to 1 mL of WGA-SEPHAROSE® (wheat germ agglutinin-crosslinked, beaded-form of agarose) (J-OIL MILLS, Inc.). After washing with buffer, elution was performed with 25 mM phosphate buffer (pH 7.2) containing 0.2 M N-acetylglucosamine, 150 mM NaCl, and 0.05% TWEEN® 20 (polyethylene glycol sorbitan monolaurate, polyoxyethylenesorbitan monolaurate), and the eluent was concentrated with a Centricon (YM-30) (Millipore). Gel filtration chromatography (SUPEROSE® 6 INCREASE (prepacked column) 10/300 GL (GE Healthcare)) was performed in 25 mM phosphate buffer (pH 7.2) containing 3 M GdnHCI and 0.5% CHAPS, and fractions strongly positive for dot blot were dialyzed with 20 mM NH4HCO3 containing 0.5% CHAPS at room temperature overnight to afford a purified antigen.
The dot blot was performed as follows. A PVDF membrane (Immobilon-P, Merck Millipore) was soaked in methanol, and then washed and impregnated with pure water. The hydrophilized PVDF membrane was placed on a filter paper containing water to avoid air inclusion, removed of excessive moisture, and soaked with 1 to 5 μL of the sample in dots fed by a micropipette. After the membrane was dried at room temperature overnight, the membrane was hydrophilized again with methanol and pure water, and blocked with 20 mM Tris buffer (pH 7.4) containing 5% skim milk, 0.1% TWEEN® 20 (polyethylene glycol sorbitan monolaurate, polyoxyethylenesorbitan monolaurate), and 150 mM NaCl (blocking buffer) at room temperature for 1 hour. […]

B1: 7.623: SEQ ID NO: 48 (SKSPSLVSLPTEST) bonded to SLURPgpi (protein)
chain: SKSPSLVSLPTESTGSLKCYTCKEPMTSASCRTITRCKPEDTACMTTLVTVEAEYPFNQSPVVTRSCSSSCVATDPDSIGAAHLIFCCFRDLCNSELSRDGAPSLGSPGGLLLALALFLLLGVLL
SKM9-2 antibody
  Binding to SKM9-2 antibody (positive/negative): positive
SKM9-2 antibody; listed as fragment 7.623
  Binding to SKM9-2 antibody (positive/negative): positive signal

B2: intelectin-fused antibody: VH and CH1 of SKM9-2 H chain fused to human intelectin positions 19-313, co-expressed with SKM9-2 L chains (protein)
chain: QVQLQQPGAELVRPGASVKLSCKASGFSFTTYWITWVKQRPGQGLEWIGMIHPSDSETRLSQTFKDKATLTVDKSSNTAYMQFSSPTSEDSAVYYCVRDFDVWGAGTTVTVSSAKTTPPSVYPLAPGSAAQTNSMVTLGCLVKGYFPEPVTVTWNSGSLSSGVHTFPAVLQSDLYTLSSSVTVPSSTWPSETVTCNVAHPASSTKVDKKIVPRDCGTDEANTYFKEWTCSSSPSLPRSCKEIKDECPSAFDGLYFLRTENGVIYQTFCDMTSGGGGWTLVASVHENDMRGKCTVGDRWSSQQGSKADYPEGDGNWANYNTFGSAEAATSDDYKNPGYYDIQAKDLGIWHVPNKSPMQHWRNSALLRYRTDTGFLQTLGHNLFGIYQKYPVKYGEGKCWTDNGPVIPVVYDFGDAQKTASYYSPYGQREFTAGFVQFRVFNNERAANALCAGMRVTGCNTEHHCIGGGGYFPEASPQQCGDFSGFDWSGYGTHVGYSSSREITEAAVLLFYR
light: DVLMTQTPLSLPVSLGDQASISCRSSQNIVHNNGNTYLGWYLQKPGQSPKLLIFKVSNRFSGVPDRFSGSGSGTDFTLKISRVEAEDLGVYYCFQGSHIPRTFGGGTRLEIKRADAAPTVSIFPPSSEQLTSGGASVVCFLNNFYPKDINVKWKIDGSERQNGVLNSWTDQDSKDSTYSMSSTLTLTKDEYERHNSYTCEATHKTSTSPIVKSFNRNEC
[1]
  Recognition of glycosylated HEG1 protein: recognized the glycosylated HEG1 protein
[1]; listed as protein complex including VH regions and CH1 regions of SKM9-2 antibody fused to
  Recognition of glycosylated HEG1 protein: allows detection of HEG1 protein

B3: 7.62: SEQ ID NO: 45 (EKVITESKSPSLVSLPTEST) bonded to SLURPgpi (protein)
chain: EKVITESKSPSLVSLPTESTGSLKCYTCKEPMTSASCRTITRCKPEDTACMTTLVTVEAEYPFNQSPVVTRSCSSSCVATDPDSIGAAHLIFCCFRDLCNSELSRDGAPSLGSPGGLLLALALFLLLGVLL
SKM9-2 antibody
  Binding to SKM9-2 antibody (positive/negative): positive
SKM9-2 antibody; listed as fragment 7.62
  Binding to SKM9-2 antibody (positive/negative): positive signal
